Data as given in patent publication US20030223964A1.

Molecular target: FITC-labeled CD4 (UniProt P01730)
Test: size exclusion HPLC (Biosil 250) after incubation with FITC-labeled CD4; free CD4-FITC elutes at 2.67 minutes

Row | Substance | retention time of the complex on size exclusion HPLC [min]
1 | US4 gp120, purified from CHO cell supernatant | 2.17
2 | oligomeric gp140 US4 (o-gp140 US4), purified from CHO cell supernatant | 1.9
